Measurements: publication PMC8744557, “Engineering the Catalytic Properties of Two-Domain Laccase from Streptomyces griseoflavus Ac-993” (International Journal of Molecular Sciences, 2021)

Legend:
purified protein [1] = substrate: CCn1c(=NN=c2sc3cc(S(=O)(=O)O)ccc3n2CC)sc2cc(S(=O)(=O)O)ccc21; assay: purified protein; format: biochemical, Streptomyces griseoflavus; conditions: 50 mM Britton-Robinson buffer, O2 co-substrate
purified protein [2] = substrate: COc1cccc(OC)c1O; assay: purified protein; format: biochemical, Streptomyces griseoflavus; conditions: 50 mM Britton-Robinson buffer, O2 co-substrate

Row | Protein | Km (purified protein [1]; pH 4.0, 30 °C) [µM] | kcat (purified protein [1]; pH 4.0, 30 °C) [s⁻¹] | kcat/Km (purified protein [1]; pH 4.0, 30 °C) [M⁻¹ s⁻¹] | Km (purified protein [2]; pH 8.0, 30 °C) [µM] | kcat (purified protein [2]; pH 8.0, 30 °C) [s⁻¹] | kcat/Km (purified protein [2]; pH 8.0, 30 °C) [M⁻¹ s⁻¹] | Km (purified protein [1]; pH 3.5, 30 °C) [µM] | kcat (purified protein [1]; pH 3.5, 30 °C) [s⁻¹] | kcat/Km (purified protein [1]; pH 3.5, 30 °C) [M⁻¹ s⁻¹] | Km (purified protein [2]; pH 8.5, 30 °C) [µM] | kcat (purified protein [2]; pH 8.5, 30 °C) [s⁻¹] | kcat/Km (purified protein [2]; pH 8.5, 30 °C) [M⁻¹ s⁻¹] | other results
1 | SgfSL (SgfSLwt) (Streptomyces griseoflavus) (protein, pET32-Xa/Lic, thioredoxin/His tail cut with factor Xa; E. coli BL21(DE3)/Rosetta; homotrimer; primers encode N-terminus AGAAPAGG and C-terminus PQEHAH) AGAAPAGGEVRRVTMYAERLAGGQMGYGLEKGKASIPGPLIELNEGDTLHVEFENTMDVPVSLHVHGLDYEISSDGTKQNKSHVEPGGTRTYTWRTHEPGRRADGTWRAGSAGYWHYHDHVVGTEHGTGGIRNGLYGPVIVRRKGDVLPDATHTIVFNDMTINNRPAHTGPNFEATVGDRVEIVMITHGEYYHTFHMHGHRWADNRTGMLTGPDDPSQVIDNKICGPADSFGFQIIAGEGVGAGAWMYHCHVQSHSDMGMVGLFLVKKPDGTIPGYDPQEHAH | 360 ± 70 | 15 ± 1 | 42000 | – | – | – | – | – | – | – | – | – | Km (purified protein [2]; pH 9.0, 30 °C): 320 ± 80 µM; kcat (purified protein [2]; pH 9.0, 30 °C): 0.35 ± 0.02 s⁻¹; kcat/Km (purified protein [2]; pH 9.0, 30 °C): 1090 M⁻¹ s⁻¹
2 | SgfSL (SgfSLwt) (Streptomyces griseoflavus; M199A) (protein, pET32-Xa/Lic, thioredoxin/His tail cut with factor Xa; E. coli BL21(DE3)/Rosetta; homotrimer; primers encode N-terminus AGAAPAGG and C-terminus PQEHAH) AGAAPAGGEVRRVTMYAERLAGGQMGYGLEKGKASIPGPLIELNEGDTLHVEFENTMDVPVSLHVHGLDYEISSDGTKQNKSHVEPGGTRTYTWRTHEPGRRADGTWRAGSAGYWHYHDHVVGTEHGTGGIRNGLYGPVIVRRKGDVLPDATHTIVFNDATINNRPAHTGPNFEATVGDRVEIVMITHGEYYHTFHMHGHRWADNRTGMLTGPDDPSQVIDNKICGPADSFGFQIIAGEGVGAGAWMYHCHVQSHSDMGMVGLFLVKKPDGTIPGYDPQEHAH | 320 ± 50 | 33 ± 2 | 102000 | 830 ± 80 | 1.3 ± 0.05 | 1550 | – | – | – | – | – | – | –
3 | SgfSL (SgfSLwt) (Streptomyces griseoflavus; M199G) (protein, pET32-Xa/Lic, thioredoxin/His tail cut with factor Xa; E. coli BL21(DE3)/Rosetta; homotrimer; primers encode N-terminus AGAAPAGG and C-terminus PQEHAH) AGAAPAGGEVRRVTMYAERLAGGQMGYGLEKGKASIPGPLIELNEGDTLHVEFENTMDVPVSLHVHGLDYEISSDGTKQNKSHVEPGGTRTYTWRTHEPGRRADGTWRAGSAGYWHYHDHVVGTEHGTGGIRNGLYGPVIVRRKGDVLPDATHTIVFNDGTINNRPAHTGPNFEATVGDRVEIVMITHGEYYHTFHMHGHRWADNRTGMLTGPDDPSQVIDNKICGPADSFGFQIIAGEGVGAGAWMYHCHVQSHSDMGMVGLFLVKKPDGTIPGYDPQEHAH | 200 ± 60 | 45 ± 7 | 226000 | 670 ± 120 | 3.39 ± 0.17 | 5070 | – | – | – | – | – | – | –
4 | SgfSL (SgfSLwt) (Streptomyces griseoflavus; Y230A) (protein, pET32-Xa/Lic, thioredoxin/His tail cut with factor Xa; E. coli BL21(DE3)/Rosetta; homotrimer; primers encode N-terminus AGAAPAGG and C-terminus PQEHAH) AGAAPAGGEVRRVTMYAERLAGGQMGYGLEKGKASIPGPLIELNEGDTLHVEFENTMDVPVSLHVHGLDYEISSDGTKQNKSHVEPGGTRTYTWRTHEPGRRADGTWRAGSAGYWHYHDHVVGTEHGTGGIRNGLYGPVIVRRKGDVLPDATHTIVFNDMTINNRPAHTGPNFEATVGDRVEIVMITHGEAYHTFHMHGHRWADNRTGMLTGPDDPSQVIDNKICGPADSFGFQIIAGEGVGAGAWMYHCHVQSHSDMGMVGLFLVKKPDGTIPGYDPQEHAH | – | – | – | – | – | – | 170 ± 40 | 29 ± 3 | 169000 | 760 ± 30 | 1.68 ± 0.07 | 2220 | –
5 | SgfSL (SgfSLwt) (Streptomyces griseoflavus; H165A/M199G) (protein, pET32-Xa/Lic, thioredoxin/His tail cut with factor Xa; E. coli BL21(DE3)/Rosetta; homotrimer; primers encode N-terminus AGAAPAGG and C-terminus PQEHAH) AGAAPAGGEVRRVTMYAERLAGGQMGYGLEKGKASIPGPLIELNEGDTLHVEFENTMDVPVSLHVHGLDYEISSDGTKQNKSHVEPGGTRTYTWRTHEPGRRADGTWRAGSAGYWHYHDHVVGTEAGTGGIRNGLYGPVIVRRKGDVLPDATHTIVFNDGTINNRPAHTGPNFEATVGDRVEIVMITHGEYYHTFHMHGHRWADNRTGMLTGPDDPSQVIDNKICGPADSFGFQIIAGEGVGAGAWMYHCHVQSHSDMGMVGLFLVKKPDGTIPGYDPQEHAH | – | – | – | – | – | – | 90 ± 10 | 9 | 95000 | – | – | – | Km (purified protein [2]; pH 6.5, 30 °C): 280 ± 50 µM; kcat (purified protein [2]; pH 6.5, 30 °C): 0.31 ± 0.01 s⁻¹; kcat/Km (purified protein [2]; pH 6.5, 30 °C): 1110 M⁻¹ s⁻¹
6 | SgfSL (SgfSLwt) (Streptomyces griseoflavus; M199G/R240H) (protein, pET32-Xa/Lic, thioredoxin/His tail cut with factor Xa; E. coli BL21(DE3)/Rosetta; homotrimer; primers encode N-terminus AGAAPAGG and C-terminus PQEHAH) AGAAPAGGEVRRVTMYAERLAGGQMGYGLEKGKASIPGPLIELNEGDTLHVEFENTMDVPVSLHVHGLDYEISSDGTKQNKSHVEPGGTRTYTWRTHEPGRRADGTWRAGSAGYWHYHDHVVGTEHGTGGIRNGLYGPVIVRRKGDVLPDATHTIVFNDGTINNRPAHTGPNFEATVGDRVEIVMITHGEYYHTFHMHGHHWADNRTGMLTGPDDPSQVIDNKICGPADSFGFQIIAGEGVGAGAWMYHCHVQSHSDMGMVGLFLVKKPDGTIPGYDPQEHAH | – | – | – | – | – | – | 100 ± 15 | 20 ± 1 | 203000 | 250 ± 20 | 4.18 ± 0.09 | 16500 | –
